Source: IntAct's records for PubMed 23274085

B1: Sestrin-2 (Homo sapiens), P58004 (parent)
chain: MIVADSECRAELKDYLRFAPGGVGDSGPGEEQRESRARRGPRGPSAFIPVEEVLREGAESLEQHLGLEALMSSGRVDNLAVVMGLHPDYFTSFWRLHYLLLHTDGPLASSWRHYIAIMAAARHQCSYLVGSHMAEFLQTGGDPEWLLGLHRAPEKLRKLSEINKLLAHRPWLITKEHIQALLKTGEHTWSLAELIQALVLLTHCHSLSSFVFGCGILPEGDADGSPAPQAPTPPSEQSSPPSRDPLNNSGGFESARDVEALMERMQQLQESLLRDEGTSQEEMESRFELEKSESLLVTPSADILEPSPHPDMLCFVEDPTFGYEDFTRRGAQAPPTFRAQDYTWEDHGYSLIQRLYPEGGQLLDEKFQAAYSLTYNTIAMHSGVDTSVLRRAIWNYIHCVFGIRYDDYDYGEVNQLLERNLKVYIKTVACYPEKTTRRMYNLFWRHFRHSEKVHVNLLLLEARMQAALLYALRAITRYMT

Variants of: B1
Conditions: with keap1_human KEAP1, Q14145
keap1_human KEAP1, Q14145, sequence (Q14145 whole entry): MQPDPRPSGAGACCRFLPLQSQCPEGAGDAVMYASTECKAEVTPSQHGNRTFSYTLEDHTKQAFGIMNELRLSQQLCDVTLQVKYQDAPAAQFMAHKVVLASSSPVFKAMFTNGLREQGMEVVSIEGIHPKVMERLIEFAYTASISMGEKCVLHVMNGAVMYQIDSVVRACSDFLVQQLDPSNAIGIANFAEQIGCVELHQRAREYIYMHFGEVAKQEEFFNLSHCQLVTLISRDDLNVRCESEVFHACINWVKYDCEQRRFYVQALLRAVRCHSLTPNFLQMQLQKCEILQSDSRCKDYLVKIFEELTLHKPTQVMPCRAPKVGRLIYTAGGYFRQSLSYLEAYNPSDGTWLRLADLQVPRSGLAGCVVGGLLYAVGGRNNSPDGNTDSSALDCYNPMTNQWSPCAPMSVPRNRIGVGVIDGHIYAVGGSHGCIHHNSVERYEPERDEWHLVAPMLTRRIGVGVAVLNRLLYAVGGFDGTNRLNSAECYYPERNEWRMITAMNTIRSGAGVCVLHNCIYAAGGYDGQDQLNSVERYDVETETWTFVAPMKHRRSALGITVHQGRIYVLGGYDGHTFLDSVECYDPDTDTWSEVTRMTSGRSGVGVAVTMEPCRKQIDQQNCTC

Variant | effect of a mutation on the interaction
MIVADSECRAELKDYLRFAPGGVGDSGPGEEQRESRARRGPRGPSAFIPVEEVLREGAESLEQHLGLEALMSSGRVDNLAVVMGLHPDYFTSFWRLHYLLLHTDGPLASSWRHYIAIMAAARHQSSYLVGSHMAEFLQTGGDPEWLLGLHRAPEKLRKLSEINKLLAHRPWLITKEHIQALLKTGEHTWSLAELIQALVLLTHCHSLSSFVFGCGILPEGDADGSPAPQAPTPPSEQSSPPSRDPLNNSGGFESARDVEALMERMQQLQESLLRDEGTSQEEMESRFELEKSESLLVTPSADILEPSPHPDMLCFVEDPTFGYEDFTRRGAQAPPTFRAQDYTWEDHGYSLIQRLYPEGGQLLDEKFQAAYSLTYNTIAMHSGVDTSVLRRAIWNYIHCVFGIRYDDYDYGEVNQLLERNLKVYIKTVACYPEKTTRRMYNLFWRHFRHSEKVHVNLLLLEARMQAALLYALRAITRYMT [C125S] | with no effect
